Data from patent publication US20170101451.

Assays:
[1] = system: stromal cell derived factor-1 (SDF-1alpha), unmutated
SDF-1 17AA = system: T1, SDF-1 17AA
T1 sequence: KPVSLSYRCPCRFFESH

Chain of matrix metalloproteinase-2 (MMP-2) (P08253 110-660): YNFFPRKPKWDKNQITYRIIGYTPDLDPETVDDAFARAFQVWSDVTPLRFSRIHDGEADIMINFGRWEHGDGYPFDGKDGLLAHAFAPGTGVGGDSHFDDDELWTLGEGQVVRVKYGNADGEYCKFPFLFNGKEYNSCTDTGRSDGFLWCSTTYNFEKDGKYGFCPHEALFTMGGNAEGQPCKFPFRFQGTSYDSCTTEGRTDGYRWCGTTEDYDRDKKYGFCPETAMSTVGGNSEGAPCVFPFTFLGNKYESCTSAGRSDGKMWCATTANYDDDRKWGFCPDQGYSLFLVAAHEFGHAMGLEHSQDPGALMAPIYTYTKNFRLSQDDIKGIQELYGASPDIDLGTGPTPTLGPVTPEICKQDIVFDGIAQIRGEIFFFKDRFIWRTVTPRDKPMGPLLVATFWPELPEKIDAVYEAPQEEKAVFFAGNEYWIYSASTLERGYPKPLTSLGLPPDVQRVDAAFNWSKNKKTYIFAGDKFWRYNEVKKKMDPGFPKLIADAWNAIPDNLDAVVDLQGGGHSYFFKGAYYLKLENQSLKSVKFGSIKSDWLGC
Chain of SDF-1(L5E) (chain, as listed by the source): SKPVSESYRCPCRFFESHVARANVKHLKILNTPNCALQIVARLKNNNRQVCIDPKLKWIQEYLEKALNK
Chain of SDF-1(L5W) (chain, as listed by the source): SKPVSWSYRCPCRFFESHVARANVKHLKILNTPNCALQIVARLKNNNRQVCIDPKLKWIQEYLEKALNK
Chain of stromal cell derived factor-1 (SDF-1alpha), unmutated (chain, as listed by the source, change not shown): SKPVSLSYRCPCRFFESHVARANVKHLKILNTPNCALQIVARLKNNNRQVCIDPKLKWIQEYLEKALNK
Chain of SDF-1(L5P) (chain, as listed by the source): as the sequence (chain, as listed by the source, change not shown) above, with L6P counted along it
Chain of SDF-1(S4V) (chain, as listed by the source): as the sequence (chain, as listed by the source, change not shown) above, with S5V counted along it

matrix metalloproteinase-2 (MMP-2)
cleavage by MMP-2: SDS-PAGE positional shift after one hour incubation [1]: unlike SDF-1, the mutants did not undergo a positional shift indicative of cleavage | cleavage by MMP-2: SDS-PAGE positional shift after one hour incubation (SDF-1(L5W)): unlike SDF-1, the mutants did not undergo a positional shift indicative of cleavage | cleavage by MMP-2: SDS-PAGE positional shift after one hour incubation (SDF-1(L5E)): unlike SDF-1, the mutants did not undergo a positional shift indicative of cleavage | cleavage by MMP-2: SDS-PAGE, 2 nmole peptide incubated with MMP-2 for 1 h at RT (SDF-1 17AA): showing cleavage of SDF-1 17AA | cleavage by MMP-2: SDS-PAGE positional shift after one hour incubation (SDF-1(S4V)): unlike SDF-1, the mutants did not undergo a positional shift indicative of cleavage | cleavage by MMP-2: SDS-PAGE positional shift after one hour incubation (SDF-1(L5P)): unlike SDF-1, the mutants did not undergo a positional shift indicative of cleavage
